# From article PMC9475542 (2022)
# B1: CD133 (protein)
# chain: GGQPSSTDAPKAWNYELPATNYETQDSHKAGPIGILFELVHIFLYVVQPRDFPEDTLRKFLQKAYESKIDYDKPETVILGLKIVYYEAGIILCCVLGLLFIILMPLVGYFFCMCRCCNKCGGEMHQRQKENGPFLRKCFAISLLVICIIISIGIFYGFVANHQVRTRIKRSRKLADSNFKDLRTLLNETPEQIKYILAQYNTTKDKAFTDLNSINSVLGGGILDRLRPNIIPVLDEIKSMATAIKETKEALENMNSTLKSLHQQSTQLSSSLTSVKTSLRSSLNDPLCLVHPSSETCNSIRLSLSQLNSNPELRQLPPVDAELDNVNNVLRTDLDGLVQQGYQSLNDIPDRVQRQTTTVVAGIKRVLNSIGSDIDNVTQRLPIQDILSAFSVYVNNTESYIHRNLPTLEEYDSYWWLGGLVICSLLTLIVIFYYLGLLCGVCGYDRHATPTTRGCVSNTGGVFLMVGVGLSFLFCWILMIIVVLTFVFGANVEKLICEPYTSKELFRVLDTPYLLNEDWEYYLSGKLFNKSKMKLTFEQVYSDCKKNRGTYGTLHLQNSFNISEHLNINEHTGSISSELESLKVNLNIFLLGAAGRKNLQDFAACGIDRMNYDSYLAQTGKSPAGVNLLSFAYDLEAKANSLPPGNLRNSLKRDAQTIKTIHQQRVLPIEQSLSTLYQSVKILQRTGNGLLERVTRILASLDFAQNFITNNTSSVIIEETKKYGRTIIGYFEHYLQWIEFSISEKVASCKPVATALDTAVDVFLCSYIIDPLNLFWFGIGKATVFLLPALIFAVKLAKYYRRMDSEDVYDDVETIPMKNMENGNNGYHKDHVYGIHNPVMTSPSQH
# Target: DNMT1 (Homo sapiens, UniProt P26358)
# Sequence (P26358 whole entry): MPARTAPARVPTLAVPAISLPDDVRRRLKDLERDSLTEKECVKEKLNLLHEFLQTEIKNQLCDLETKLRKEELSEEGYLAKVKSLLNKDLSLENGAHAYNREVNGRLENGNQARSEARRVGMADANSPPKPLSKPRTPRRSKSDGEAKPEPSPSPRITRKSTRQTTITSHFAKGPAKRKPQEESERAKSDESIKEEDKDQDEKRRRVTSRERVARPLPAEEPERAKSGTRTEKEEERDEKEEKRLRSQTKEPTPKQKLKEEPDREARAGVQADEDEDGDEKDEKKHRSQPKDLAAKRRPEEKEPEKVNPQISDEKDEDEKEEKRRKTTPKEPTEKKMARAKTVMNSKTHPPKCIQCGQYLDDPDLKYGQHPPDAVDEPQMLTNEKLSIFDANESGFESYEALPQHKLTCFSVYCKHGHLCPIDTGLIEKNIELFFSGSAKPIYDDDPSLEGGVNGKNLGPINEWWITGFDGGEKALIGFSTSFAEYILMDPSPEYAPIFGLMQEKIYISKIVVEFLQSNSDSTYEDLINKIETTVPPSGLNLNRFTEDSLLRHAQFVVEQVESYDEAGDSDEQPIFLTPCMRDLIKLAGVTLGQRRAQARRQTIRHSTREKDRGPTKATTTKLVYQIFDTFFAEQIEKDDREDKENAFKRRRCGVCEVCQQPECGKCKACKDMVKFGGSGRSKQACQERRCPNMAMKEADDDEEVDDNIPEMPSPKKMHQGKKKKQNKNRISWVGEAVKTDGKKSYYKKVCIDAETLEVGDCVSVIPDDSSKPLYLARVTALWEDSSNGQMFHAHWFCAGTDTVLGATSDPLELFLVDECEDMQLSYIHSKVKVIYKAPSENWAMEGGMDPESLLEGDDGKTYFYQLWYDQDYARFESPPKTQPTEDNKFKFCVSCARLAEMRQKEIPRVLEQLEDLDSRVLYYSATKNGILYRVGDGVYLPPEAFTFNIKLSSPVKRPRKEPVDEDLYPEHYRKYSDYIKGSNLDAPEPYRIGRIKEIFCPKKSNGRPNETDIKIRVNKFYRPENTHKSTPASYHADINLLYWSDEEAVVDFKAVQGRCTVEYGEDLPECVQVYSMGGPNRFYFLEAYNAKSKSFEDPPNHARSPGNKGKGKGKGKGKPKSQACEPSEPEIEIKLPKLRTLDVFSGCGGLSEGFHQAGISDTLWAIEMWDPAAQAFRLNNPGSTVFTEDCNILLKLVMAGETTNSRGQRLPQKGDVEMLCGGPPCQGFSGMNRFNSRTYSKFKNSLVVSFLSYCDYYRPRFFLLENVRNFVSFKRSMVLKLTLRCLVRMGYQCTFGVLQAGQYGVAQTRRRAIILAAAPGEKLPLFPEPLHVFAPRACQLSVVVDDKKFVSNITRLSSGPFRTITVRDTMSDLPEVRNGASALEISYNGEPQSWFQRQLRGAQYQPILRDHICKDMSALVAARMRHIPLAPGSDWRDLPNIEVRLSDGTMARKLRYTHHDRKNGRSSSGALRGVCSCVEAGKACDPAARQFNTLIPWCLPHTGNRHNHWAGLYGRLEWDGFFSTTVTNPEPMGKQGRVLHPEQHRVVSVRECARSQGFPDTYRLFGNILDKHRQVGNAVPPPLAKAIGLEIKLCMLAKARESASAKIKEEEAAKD
# Experiment: ELISA
binder,measurement,value
B1,Kd,~150 nM
